Assay results from patent US20230174623A1 (MIT, published 2023).

B1: extracellular domain of His-tagged murine LAIR-1 (receptor)
chain: QEGSLPDITIFPNSSLMISQGTFVTVVCSYSDKHDLYNMVRLEKDGSTFMEKSTEPYKTEDEFEIGPVNETITGHYSCIYSKGITWSERSKTLELKVIKENVIQTPAPGPTSDTSWLKTYSIYHHHHHH
notes: The entry includes the C-terminal His tag; Expressed in HEK293 cells; also called mLAIR1-His; mLAIR1
B2: Lumican-Gluc (His-tagged murine lumican fused to Gaussia luciferase) (other)
chain: QYYDYDIPLFMYGQISPNCAPECNCPHSYPTAMYCDDLKLKSVPMVPPGIKYLYLRNNQIDHIDEKAFENVTDLQWLILDHNLLENSKIKGKVFSKLKQLKKLHINYNNLTESVGPLPKSLQDLQLTNNKISKLGSFDGLVNLTFIYLQHNQLKEDAVSASLKGLKSLEYLDLSFNQMSKLPAGLPTSLLTLYLDNNKISNIPDEYFKRFTGLQYLRLSHNELADSGVPGNSFNISSLLELDLSYNKLKSIPTVNENLENYYLEVNELEKFDVKSFCKILGPLSYSKIKHLRLDGNPLTQSSLPPDMYECLRVANEITVNGGGSGGGSGGGSKPTENNEDFNIVAVASNFATTDLDADRGKLPGKKLPLEVLKEMEANARKAGCTRGCLICLSHIKCTPKMKKFIPGRCHTYEGDKESAQGGIGEAIVDIPEIPGFKDLEPMEQFIAQVDLCVDCTTGCLKGLANVQCSDLLKKWLPQRCATFASKIQGQVDKIKGAGGDGGGSHHHHHH
notes: Expressed in HEK293 cells, 56.6 kDa; also called Lum GLuc
B3: LAIR30.2.K1.B displayed on yeast (Aga2 fusion with c-myc tag) (receptor)
chain: QEGSLPDITIFPNSSLVISQGTFVTVVCSYSDKHDLYNMVRLEKDGSTFMEKSTAPYKTEDEFEIGPVNETITGHYSCIYSKGITWSERSKTLELKVIKENVIQTPAPGPTSDTLWLKTYSIY
notes: not shown: Aga2 protein of yeast, display anchor of the pCTCON2 vector; c-myc tag after the LAIR gene
B4: His-tagged biotinylated lumican (other)
chain: QYYDYDIPLFMYGQISPNCAPECNCPHSYPTAMYCDDLKLKSVPMVPPGIKYLYLRNNQIDHIDEKAFENVTDLQWLILDHNLLENSKIKGKVFSKLKQLKKLHINYNNLTESVGPLPKSLQDLQLTNNKISKLGSFDGLVNLTFIYLQHNQLKEDAVSASLKGLKSLEYLDLSFNQMSKLPAGLPTSLLTLYLDNNKISNIPDEYFKRFTGLQYLRLSHNELADSGVPGNSFNISSLLELDLSYNKLKSIPTVNENLENYYLEVNELEKFDVKSFCKILGPLSYSKIKHLRLDGNPLTQSSLPPDMYECLRVANEITVNGGGSHHHHHH
modifications: biotinylated (site not stated)
notes: also called Lwt-His-b; Lwt-HIS-b
B5: ColG s3a/s3b-Gluc (bacterial collagenase ColG domains s3a/s3b fused to Gaussia luciferase, His-tagged) (other)
chain: PITKEMEPNDDIKEANGPIVEGVTVKGDLNGSDDADTFYFDVKEDGDVTIELPYSGSSNFTWLVYKEGDDQNHIASGIDKNNSKVGTFKSTKGRHYVFIYKHDSASNISYSLNIKGLGNEKLKEKENNDSSDKATVIPNFNTTMQGSLLGDDSRDYYSFEVKEEGEVNIELDKKDEFGVTWTLHPESNINDRITYGQVDGNKVSNKVKLRPGKYYLLVYKYSGSGNYELRVNGGGSGGGSGGGSKPTENNEDFNIVAVASNFATTDLDADRGKLPGKKLPLEVLKEMEANARKAGCTRGCLICLSHIKCTPKMKKFIPGRCHTYEGDKESAQGGIGEAIVDIPEIPGFKDLEPMEQFIAQVDLCVDCTTGCLKGLANVQCSDLLKKWLPQRCATFASKIQGQVDKIKGAGGDGGGSHHHHHH
notes: Expressed in HEK293 cells, 46.1 kDa; also called ColG-Gluc; ColG s3s/s3b-Gluc
B6: lumican (purified His-tagged murine lumican, not biotinylated) (other)
chain: B4 chain
notes: also called Lwt

What was measured:
[1] = biological target: T1, bovine serum albumin (plate blocked with BSA) (bovine, UniProt P02769 25-607); assay: ELISA on a plate blocked with bovine serum albumin, anti-His-HRP detection
T1 construct: Specificity control surface

[2] = biological target: T2, collagen type I (collagen I coated 96 well-plates, Gibco); assay: competition ELISA on collagen I; 50 nM biotinylated lumican detected with streptavidin-HRP, rmLAIR1 varied
T2 construct: also called collagen type 1
T2 sequence (P02454 152-1207, chain 1 of 2): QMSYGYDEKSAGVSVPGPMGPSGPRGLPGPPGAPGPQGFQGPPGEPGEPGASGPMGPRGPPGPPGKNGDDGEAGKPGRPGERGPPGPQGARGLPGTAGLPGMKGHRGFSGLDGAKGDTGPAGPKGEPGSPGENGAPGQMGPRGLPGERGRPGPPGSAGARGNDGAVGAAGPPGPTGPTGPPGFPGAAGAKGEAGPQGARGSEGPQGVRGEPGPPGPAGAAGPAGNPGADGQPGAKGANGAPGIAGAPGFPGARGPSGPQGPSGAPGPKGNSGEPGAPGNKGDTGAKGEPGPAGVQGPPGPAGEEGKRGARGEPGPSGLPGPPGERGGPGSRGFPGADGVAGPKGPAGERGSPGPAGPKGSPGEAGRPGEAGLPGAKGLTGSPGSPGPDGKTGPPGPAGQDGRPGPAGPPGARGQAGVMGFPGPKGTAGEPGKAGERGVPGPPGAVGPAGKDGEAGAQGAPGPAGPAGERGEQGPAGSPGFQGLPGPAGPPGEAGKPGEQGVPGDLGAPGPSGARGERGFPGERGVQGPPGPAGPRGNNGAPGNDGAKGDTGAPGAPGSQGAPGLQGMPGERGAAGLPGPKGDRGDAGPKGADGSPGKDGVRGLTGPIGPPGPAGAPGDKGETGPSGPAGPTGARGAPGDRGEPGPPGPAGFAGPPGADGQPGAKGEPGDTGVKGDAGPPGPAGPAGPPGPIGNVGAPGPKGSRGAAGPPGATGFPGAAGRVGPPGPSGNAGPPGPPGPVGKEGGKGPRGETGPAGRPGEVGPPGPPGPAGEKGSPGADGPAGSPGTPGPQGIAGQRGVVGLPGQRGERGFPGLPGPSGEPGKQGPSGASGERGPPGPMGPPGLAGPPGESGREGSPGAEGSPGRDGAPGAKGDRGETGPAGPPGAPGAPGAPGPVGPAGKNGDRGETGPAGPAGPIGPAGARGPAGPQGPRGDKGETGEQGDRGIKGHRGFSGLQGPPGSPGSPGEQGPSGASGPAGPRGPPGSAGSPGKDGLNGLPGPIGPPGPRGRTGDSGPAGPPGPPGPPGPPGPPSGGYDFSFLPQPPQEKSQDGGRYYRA
T2 sequence (P02466 86-1125, chain 2 of 2, further chain): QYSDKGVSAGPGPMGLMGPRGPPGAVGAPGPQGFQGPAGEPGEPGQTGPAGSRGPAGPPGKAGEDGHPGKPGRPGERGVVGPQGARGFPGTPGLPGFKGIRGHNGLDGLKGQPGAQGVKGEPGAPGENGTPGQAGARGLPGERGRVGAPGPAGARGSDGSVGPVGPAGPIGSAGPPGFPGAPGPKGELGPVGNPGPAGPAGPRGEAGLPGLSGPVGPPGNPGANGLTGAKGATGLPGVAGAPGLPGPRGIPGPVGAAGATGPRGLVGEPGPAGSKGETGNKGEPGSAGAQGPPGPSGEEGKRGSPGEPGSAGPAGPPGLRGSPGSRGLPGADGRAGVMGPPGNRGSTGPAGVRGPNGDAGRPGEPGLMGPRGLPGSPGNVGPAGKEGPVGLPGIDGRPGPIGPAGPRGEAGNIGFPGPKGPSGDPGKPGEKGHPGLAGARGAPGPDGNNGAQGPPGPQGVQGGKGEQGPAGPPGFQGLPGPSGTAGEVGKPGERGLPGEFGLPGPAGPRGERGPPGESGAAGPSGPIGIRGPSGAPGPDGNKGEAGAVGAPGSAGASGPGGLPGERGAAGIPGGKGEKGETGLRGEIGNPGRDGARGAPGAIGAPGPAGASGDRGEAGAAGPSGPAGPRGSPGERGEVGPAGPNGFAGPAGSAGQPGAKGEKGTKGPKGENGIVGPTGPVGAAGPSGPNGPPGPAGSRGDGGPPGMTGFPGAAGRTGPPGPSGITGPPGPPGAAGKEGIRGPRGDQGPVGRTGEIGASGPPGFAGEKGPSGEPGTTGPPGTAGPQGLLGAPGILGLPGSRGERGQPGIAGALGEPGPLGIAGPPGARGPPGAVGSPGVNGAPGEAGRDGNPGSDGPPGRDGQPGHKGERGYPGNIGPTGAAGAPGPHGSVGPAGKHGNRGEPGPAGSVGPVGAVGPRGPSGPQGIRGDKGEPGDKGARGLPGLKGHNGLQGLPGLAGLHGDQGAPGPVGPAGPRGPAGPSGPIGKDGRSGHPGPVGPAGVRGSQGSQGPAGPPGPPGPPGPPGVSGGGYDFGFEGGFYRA

[3] = biological target: T2, collagen type I (collagen I coated 96 …); assay: ELISA on collagen I, anti-His-HRP
[4] = biological target: T2, collagen type I (collagen I coated 96 …); assay: ELISA on collagen I coated plate, anti-6xHis-HRP
[5] = biological target: T2, collagen type I (collagen I coated 96 …); assay: ELISA, collagen I coated plate, anti-6xHis-HRP detection
[6] = biological target: collagen type IV (collagen IV coated 96 well-plates, Corning); assay: ELISA, collagen IV coated plate, anti-6xHis-HRP detection
Chain of collagen type IV (collagen IV coated 96 well-plates, Corning) (P02463 173-1669, chain 1 of 2): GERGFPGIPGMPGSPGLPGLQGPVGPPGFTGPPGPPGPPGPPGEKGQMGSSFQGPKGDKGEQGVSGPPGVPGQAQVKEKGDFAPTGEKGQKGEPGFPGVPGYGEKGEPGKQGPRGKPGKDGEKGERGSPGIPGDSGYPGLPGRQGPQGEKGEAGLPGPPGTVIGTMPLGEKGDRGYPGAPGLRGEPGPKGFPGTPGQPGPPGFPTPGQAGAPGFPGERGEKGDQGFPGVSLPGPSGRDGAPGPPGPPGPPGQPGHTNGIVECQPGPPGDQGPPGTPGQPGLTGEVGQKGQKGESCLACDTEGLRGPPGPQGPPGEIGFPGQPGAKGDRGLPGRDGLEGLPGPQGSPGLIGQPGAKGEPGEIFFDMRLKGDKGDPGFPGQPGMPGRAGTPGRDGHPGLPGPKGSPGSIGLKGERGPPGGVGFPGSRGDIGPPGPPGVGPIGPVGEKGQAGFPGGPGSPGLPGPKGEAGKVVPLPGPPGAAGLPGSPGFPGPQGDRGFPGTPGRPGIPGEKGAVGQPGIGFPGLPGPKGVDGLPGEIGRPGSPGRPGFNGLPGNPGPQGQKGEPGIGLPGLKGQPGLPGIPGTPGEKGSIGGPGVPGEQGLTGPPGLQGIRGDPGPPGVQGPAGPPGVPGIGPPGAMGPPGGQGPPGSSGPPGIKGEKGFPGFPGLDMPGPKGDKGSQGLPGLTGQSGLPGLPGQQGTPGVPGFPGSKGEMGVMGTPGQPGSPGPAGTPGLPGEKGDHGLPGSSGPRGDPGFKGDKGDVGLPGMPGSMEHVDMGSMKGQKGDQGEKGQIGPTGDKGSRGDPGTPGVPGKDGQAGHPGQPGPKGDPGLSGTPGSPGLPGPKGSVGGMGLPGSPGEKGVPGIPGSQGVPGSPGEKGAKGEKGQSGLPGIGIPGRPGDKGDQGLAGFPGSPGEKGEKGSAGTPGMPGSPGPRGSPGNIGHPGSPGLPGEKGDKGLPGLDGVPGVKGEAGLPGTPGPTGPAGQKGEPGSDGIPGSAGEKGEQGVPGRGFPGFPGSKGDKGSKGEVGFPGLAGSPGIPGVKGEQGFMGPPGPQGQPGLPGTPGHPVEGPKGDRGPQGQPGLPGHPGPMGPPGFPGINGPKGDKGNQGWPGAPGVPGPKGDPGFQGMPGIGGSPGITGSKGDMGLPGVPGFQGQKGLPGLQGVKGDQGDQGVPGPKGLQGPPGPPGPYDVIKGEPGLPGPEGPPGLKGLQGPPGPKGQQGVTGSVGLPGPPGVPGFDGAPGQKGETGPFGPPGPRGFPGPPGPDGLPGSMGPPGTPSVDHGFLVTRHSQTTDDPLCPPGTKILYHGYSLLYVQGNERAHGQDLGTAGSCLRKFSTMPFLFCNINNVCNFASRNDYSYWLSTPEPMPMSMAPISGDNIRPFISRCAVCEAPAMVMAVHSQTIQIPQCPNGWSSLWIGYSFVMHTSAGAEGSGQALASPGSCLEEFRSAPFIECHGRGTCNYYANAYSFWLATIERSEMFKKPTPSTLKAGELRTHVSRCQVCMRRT
Chain of collagen type IV (collagen IV coated 96 well-plates, Corning) (P08122 184-1707, chain 2 of 2, further chain): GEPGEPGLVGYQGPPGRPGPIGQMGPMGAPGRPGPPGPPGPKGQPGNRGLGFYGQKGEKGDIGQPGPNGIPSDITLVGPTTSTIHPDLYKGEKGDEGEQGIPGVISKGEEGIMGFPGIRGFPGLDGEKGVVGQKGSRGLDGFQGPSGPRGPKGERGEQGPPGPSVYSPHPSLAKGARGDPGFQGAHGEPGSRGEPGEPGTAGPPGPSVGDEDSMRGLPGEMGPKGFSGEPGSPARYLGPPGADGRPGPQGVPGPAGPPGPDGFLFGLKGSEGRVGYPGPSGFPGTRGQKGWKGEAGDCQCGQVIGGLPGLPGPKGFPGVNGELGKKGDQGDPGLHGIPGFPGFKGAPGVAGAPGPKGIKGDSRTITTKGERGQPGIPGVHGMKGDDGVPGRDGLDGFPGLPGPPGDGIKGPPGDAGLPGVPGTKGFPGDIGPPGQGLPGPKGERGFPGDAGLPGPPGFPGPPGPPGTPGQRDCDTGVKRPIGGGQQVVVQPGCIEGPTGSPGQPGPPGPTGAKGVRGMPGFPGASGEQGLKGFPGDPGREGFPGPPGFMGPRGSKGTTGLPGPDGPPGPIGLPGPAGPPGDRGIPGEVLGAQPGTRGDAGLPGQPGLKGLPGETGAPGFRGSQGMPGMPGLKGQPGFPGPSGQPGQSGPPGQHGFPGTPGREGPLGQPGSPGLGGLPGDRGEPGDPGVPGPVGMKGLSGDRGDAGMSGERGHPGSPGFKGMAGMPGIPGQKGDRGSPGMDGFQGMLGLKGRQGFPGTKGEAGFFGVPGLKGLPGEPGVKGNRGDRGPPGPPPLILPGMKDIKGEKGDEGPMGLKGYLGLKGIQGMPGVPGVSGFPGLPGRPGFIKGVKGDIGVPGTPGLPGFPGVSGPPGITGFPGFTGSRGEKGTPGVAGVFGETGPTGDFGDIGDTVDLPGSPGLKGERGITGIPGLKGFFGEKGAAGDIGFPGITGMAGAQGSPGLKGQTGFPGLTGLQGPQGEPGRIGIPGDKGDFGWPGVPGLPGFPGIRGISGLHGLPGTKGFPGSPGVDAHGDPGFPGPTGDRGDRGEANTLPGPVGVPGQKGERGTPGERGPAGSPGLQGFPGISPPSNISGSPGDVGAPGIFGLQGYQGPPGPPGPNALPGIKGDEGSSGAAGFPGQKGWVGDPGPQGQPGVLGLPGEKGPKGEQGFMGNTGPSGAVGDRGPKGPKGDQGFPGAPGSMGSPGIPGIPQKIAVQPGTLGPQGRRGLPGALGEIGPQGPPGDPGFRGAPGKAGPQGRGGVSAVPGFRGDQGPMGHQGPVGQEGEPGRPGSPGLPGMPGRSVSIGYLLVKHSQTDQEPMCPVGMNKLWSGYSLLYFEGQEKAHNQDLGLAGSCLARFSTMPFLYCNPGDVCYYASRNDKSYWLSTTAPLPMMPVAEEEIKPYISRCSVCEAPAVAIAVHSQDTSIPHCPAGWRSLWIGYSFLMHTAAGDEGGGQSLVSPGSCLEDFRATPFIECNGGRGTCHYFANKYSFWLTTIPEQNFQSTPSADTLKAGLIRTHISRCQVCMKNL

[7] = biological target: collagen type IV (collagen IV coated 96 well-plates, Corning); assay: ELISA on collagen IV coated plate, anti-6xHis-HRP
[8] = biological target: T3, CRP-XL-biotin (crosslinked collagen related peptide, biotinylated) (O represents hydroxyproline (all O positions); C-terminal amide (NH2); chains crosslinked to lock the helical structure; biotinylated (site not stated)); assay: kinetic dissociation at 37 C on yeast, MFI of bound CRP-XL-biotin during competition with excess CRP-XL, one-phase exponential decay fit
T3 construct: also called CPP-XL-biotin; soluble collagen peptide mimic

[9] = biological target: T2, collagen type I (collagen I coated 96 …); assay: ELISA on collagen I after thawing from frozen, with excipients; data not shown

Binder	binding result [1]	EC50 (read off the curve) [3] [nM]	Kd [5] [nM]	further results
B1	no binding	~20	–	IC50 (read off the curve) [2]: ~300 nM
B2	–	–	130	EC50 (read off the curve) [4]: ~60 nM; Kd [6]: 600 nM; EC50 (read off the curve) [7]: ~60 nM
B3	–	–	–	koff [8]: 4.17e-06 s⁻¹
B4	no binding	~20	–	–
B5	–	–	139	–
B6	–	–	–	fold reduction of binding affinity if lumican was not warmed to 37° C. prior to measurement [9]: ~50 fold
